From paper PMC5100913 (PLoS ONE, 2016)

Target: T1, Aha1 (yeast, UniProt Q12449 1-350)
T1 sequence (looked up): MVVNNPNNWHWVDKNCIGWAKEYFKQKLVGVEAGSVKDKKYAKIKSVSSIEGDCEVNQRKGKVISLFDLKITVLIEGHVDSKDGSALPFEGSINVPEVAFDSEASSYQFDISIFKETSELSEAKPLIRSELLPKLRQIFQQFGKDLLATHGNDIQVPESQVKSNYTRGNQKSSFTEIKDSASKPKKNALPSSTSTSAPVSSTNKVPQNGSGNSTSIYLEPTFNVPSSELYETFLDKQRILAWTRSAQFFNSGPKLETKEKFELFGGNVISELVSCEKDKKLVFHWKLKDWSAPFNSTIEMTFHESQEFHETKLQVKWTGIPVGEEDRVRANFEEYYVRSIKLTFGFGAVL
Assay: cell-based or functional assay

B1: yeast Hsp90 (natural protein)
chain: not shown
  stimulation of the chaperone's ATPase activity by Aha1 (NADH coupled enzymatic assay, hsp90:Aha1 1:2): 10 fold
